According to patent publication US20100261660A1 (published 2010):
Where a chain is given by its changes, count along the chain named.

Target: T1, Soluble CD28-Ig (extracellular domain of human CD28 fused to the Fc portion of human IgG1) (human, UniProt P10747 19-152, biotin-conjugated (NHS-biotin) in the FACS binding assays)
T1 construct: extracellular domain; bought from R&D Systems; also called sCD28-Ig; CD28-Ig Fc; not shown: Fc portion of human IgG1
Experiment: competitive FACS on transfected cells, biotin-sCD28-Ig with FITC-sCTLA-4-Ig; grade 0-2 of CD28/CTLA-4 ratio vs WT hB7-1

B1: Round 2 CD28C7-3 (ligand)
chain: ITPKSVTKRVKETVMLSCDYSTSTEELTSLRIYWQKDSKMVLAILPGKVQVWPEYKNRTITDMNDNPRIVILALRLSDSGTYTCVIQKPDLKGAYKLEHLTSVRLMIRADFPVPSITDIGHPAPNVKRIRCSASGDFPEPRLAWMEDGEELNAVNTTVDQDLDTELYSVSSELDFNVTNNHSIVCLIKYGELSVSQIFPWSKPKQEPPIDQLPFWVIIPVSGALVLTAVVLYCLACRHVARWKRTRRNEETVGTERLSPIYLGSAQSSG
In the case of B1, the “Binding Score” value is reported as 1.

B2: Round 2 CD28G1-9 (ligand)
chain: B1 chain with S21N, D90V, D136G
For B2, the “Binding Score” value was 1.

B3: Round 2 CD28F12-5* (ligand)
chain: B1 chain with S21N, T101A
B3 was tested, and the “Binding Score” value was 1.

B4: Round 2 CD28F10-2 (ligand)
chain: B1 chain with S21N
For B4, the “Binding Score” value was 1.

B5: Round 2 CD28D12-5 (ligand)
chain: ITPKSVTKRVKETVMLSCDYSTSTEELTSLRIYWQKDSKMVLAILPGKVQVWPEYKNRTITDMNDNPRIVILALRLSDSGTYTCVIQKPVLKGAYKLEHLASVRLMIRADFPVPSITDIGHPAPNVKRIRCSASGDFPEPRLAWMEDGEELNAVNTTVLDTELYSVSSELDFNVTNNHSIVCLIKYGELSVSQIFPWSKPKQEPPIDQLPFWVIIPVSGALVLTAVVLYCLACRHVARWKRTRRNEETVGTERLSPIYLGSAQPSG
For B5, the “Binding Score” value was 2.

B6: Round 2 CD28H6-6 (ligand)
chain: ITPKSVTKRVKETVMLSCDYSTSTEELTSLRIYWQKDSKMVLAILPGKVQVWPEYKNRTITDMNDNPRIVILALRLSDSGTYTCVIQKPVLKGAYKLEHLASVRLMIRADFPVPTINDLGNPSPNIRRLICSGFPRPHLYWLENGEELNATNTTVSQDPGTELYMISSELDFNVTNNHSIVCLIKYGELSVSQIFPWSKPKQEPPIDQLPFWVIIPVSGALVLTAVVLYCLACRHVARWKRTRRNEETVGTERLSPIYLGSAQSSG
In the case of B6, the “Binding Score” value is reported as 1.

B7: Round 2 CD28B6-6 (ligand)
chain: ITPKSVTKRVKETVMLSCDYSTSTEELTSLRIYWQKDSKMVLAILPGKVQVWPEYKNRTITDMNDNPRIVILALRLSDKGTYTCVIQKPVLKGAYKLEHLTSVTLSIRADFPVPSITDIGHPAPNVKRIRCSASGGFPEPRLAWMEDGEELNAVNTTVDQDLDTELYSVSSELDFNATNNHSIVCLIKYGELSVSQIFPWSKPKQEPPIDQLPFWVIVPVSGALVLTAVVLYCLACRHVAR
For B7, the “Binding Score” value was 1.

B8: Round 2 CD28C2-4 (ligand)
chain: GISQVTKSVKEMAALSCDYNISIDELARMRIYWQKDQQMVLSIISGQVEVWPEYKNRTITDMNDNPRIVILALRLSDSGTYTCVIQKPVLKGAYKPEHLASVRLMIRADFPVPTINDLGNPSPNIRRLICSTSGGFPRPHLYWLENGEELNATNTTLSQDPETKLYMISSELDFNMTSNHSFLCLVKYGDLTVSQTFYWQESKPTPSANQHLTWTIIIPVSAFGISVIIAVILTCLTCRNAAIRRQRRENEVEMQSCSQSP
With B8 the “Binding Score” value was 1.

B9: Round 2 CD28D11-1 (ligand)
chain: ITPKSVTKRVKETVMLSCDYNTSTEELTSLRIYWQKDSKMVLAILPGKVQVWPEYKNRTITDMNDNPRIVILALRLSDSGTYTCVVQKNENGSFRREHLTSVTLSIRADFPVPSITDIGHPAPNVKRIRCSASGDFPEPRLAWMEDGEELNAVNTTVDQDLDTELYSVSSELDFNVTNNHSIVCLIKYGELSVSQIFPWSKPKQEPPIDQLPFWVIILVSGALVLTAVVLYCLACRHVARWKRTRRNEETVGTERLSPIYLGSAQSSG
In the case of B9, the “Binding Score” value is reported as 2.

B10: Round 2 CD28A2-5 (ligand)
chain: ITPKSVTKRVKETVMLSCDYNTSTEELTSLRIYWQKDSKMVLAILPGKVQVWPEYKNRTITDMNDNPRIVILALRLSDSGTYTCVIQKPDLKGAYKLEHLASVRLMIRADFPVPSITDIGHPAPNVKRIRCSASGGFPEPRLAWMEDGEELNAVNTTVDQDLDTELYSVSSELDFNMTSNHSFLCLVKYGDLTVSQTFYWQESKPTPSANQHLTWTIIIPVSAFGISVIIAVILTCLTCRNAAIRRQRRENEGKCKVLSVSIGTKLKFNR
B10 was tested, and the “Binding Score” value was 0.

B11: Round 2 CD28B4-5* (ligand)
chain: SGITPKSVTKRVKETVMLSCDYNTSTEELTSLRIYWQKDSKMVLAILPGKVQVWPEYKNRTITDMNDNPRIVILALRLSDKGTYTCVVQKPDLKGAYKLEHLASVRLMIRADFPVPSITDIGHPAPNVKRIRCSASGGFPEPRLAWMEDGEELNAVNTTVDQDLDTELYSVSSELDFNVTNNHSIVCLIKYGELSVSQIFPWSKPKQEPPIDQLPFWVIIPVSGALVLTAVVLYCLACRHVARWKRTRRNEETVGTERLSPIYLGSAQSSG
B11 was tested, and the “Binding Score” value was 0.

B12: Round 2 CD28E2-5* (ligand)
chain: TTPKSVTKRVKETVMLSCDYNTSTEELTSLRIYWQKDSKMVLAILPGKVQVWPEYKNRTITDMNDNPRIVILALRPSDSGTYTCVIQKPVLKGAYKLEHLASVRLMIRADFPVPTINDLGNPSPNIRRLICSTSGGFPRPHLYWLENGEELNATNTTLSQDPETKLYMISSELDFNMTSNHSFLCLVKYGDLTVSQTFYWQESKPTPSANQHLTWTIIIPVSAFGISVIIAVILTCLTCRNAAIRRQRRENEVEMQSCSQSP
With B12 the “Binding Score” value was 0.

B13: Round 2 CD28F3-1 (ligand)
chain: B12 chain with T1I, P76L, V90D, A101T, E149K
B13 was tested, and the “Binding Score” value was 0.

B14: Round 2 CD28E8-6 (ligand)
chain: B12 chain with T1I, P76L, A101T, L158V, M177T
B14 was tested, and the “Binding Score” value was 0.

B15: Round 2 CD28F11-8 (ligand)
chain: ITPKSVTKRVKETVMLSCDYNTSTEELTSLRIYWQKDSKMVLAILPGKVQVWPEYKNRTITDMNDNPRIVILALRLSDSGTYTCVIQKPVLKGAYKLEHLTSVRLMIRADFPVPTINDLGNPSPNIRRLICSTSGGFPRPHLYWLENGEELNATNTTLSQDPETKLYMISSELDFNMTSNLCLVKYGDLTVSQTFYWQESKPTPSANQHLTWTIIIPVSAFGISVIIAVILTCLTCRNAAIRRQRRENEVEMQSCSQSP
With B15 the “Binding Score” value was 0.

B16: Round 2 CD28D2-3 (ligand)
chain: ITPKSVTKRVKETVMLSCDYNTSTEELTSLRIYWQKDSKMVLAILPGKVQVWPEYKNRTITDMNDNPRIVIQALRLSDSGTYTCVIQKPVLKGAYKLEHLASVRLMIRADFPVPTDLGNPSPNIRRLICSTSGGFPRPHLYWLENGEELNATNTTVSQDPGTELYMISSELDFNVTNNHSIVCLIKYGELSVSQIFPWSKPKQEPPIDQLPFWVIIPVSGALVLTAVVLYCLACRHVARWKRTRRNEETVGTERLSPIYLGSAQSSG
B16 was tested, and the “Binding Score” value was 1.
